Source: publication PMC6331220

Molecular target: T1, BsSsbA (Bacillus subtilis, UniProt P37455 1-104)
T1 sequence: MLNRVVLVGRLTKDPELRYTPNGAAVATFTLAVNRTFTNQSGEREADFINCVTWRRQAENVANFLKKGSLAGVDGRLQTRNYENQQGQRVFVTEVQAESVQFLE
Test: X-ray crystallography

TTTTTTTTTTTTTTTTTTTTTTTTTTTTTTTTTTT (ssDNA) [dT35]
binding result: binds
